Measured values as given in patent US20190201542A1 (AbbVie / Abbott, published 2019).

T1: hASCL1 in 293 cells engineered to express ASCL1 (293-ASCL1) (human, UniProt P50553 1-236)
T1 construct: whole, on cells; also called DDDK-tagged hASCL1 from pLMEGPA-hASCL1-NFlag
T1 sequence (looked up): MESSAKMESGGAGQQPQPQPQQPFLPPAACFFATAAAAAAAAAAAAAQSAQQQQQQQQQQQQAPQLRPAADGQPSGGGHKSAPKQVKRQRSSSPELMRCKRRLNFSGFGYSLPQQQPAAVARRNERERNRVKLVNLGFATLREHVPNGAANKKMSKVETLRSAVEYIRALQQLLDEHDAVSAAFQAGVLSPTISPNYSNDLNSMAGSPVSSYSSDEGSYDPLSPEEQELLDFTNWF

T2: human ASCL1 (human, UniProt P50553 1-236, limits assumed)
T2 construct: Transcription factor; also called hASCL1; immobilized human ASCL1
T2 sequence (looked up): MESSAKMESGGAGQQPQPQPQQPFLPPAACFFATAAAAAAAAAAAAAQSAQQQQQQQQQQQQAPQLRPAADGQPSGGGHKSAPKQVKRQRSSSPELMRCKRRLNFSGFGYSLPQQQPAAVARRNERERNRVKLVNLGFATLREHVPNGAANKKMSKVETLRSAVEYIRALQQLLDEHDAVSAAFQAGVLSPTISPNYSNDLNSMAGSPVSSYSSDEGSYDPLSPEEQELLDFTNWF

T3: human DLL3 (human, UniProt Q9NYJ7 27-492, limits assumed)
T3 construct: also called hDLL3; DLL3 protein
T3 sequence: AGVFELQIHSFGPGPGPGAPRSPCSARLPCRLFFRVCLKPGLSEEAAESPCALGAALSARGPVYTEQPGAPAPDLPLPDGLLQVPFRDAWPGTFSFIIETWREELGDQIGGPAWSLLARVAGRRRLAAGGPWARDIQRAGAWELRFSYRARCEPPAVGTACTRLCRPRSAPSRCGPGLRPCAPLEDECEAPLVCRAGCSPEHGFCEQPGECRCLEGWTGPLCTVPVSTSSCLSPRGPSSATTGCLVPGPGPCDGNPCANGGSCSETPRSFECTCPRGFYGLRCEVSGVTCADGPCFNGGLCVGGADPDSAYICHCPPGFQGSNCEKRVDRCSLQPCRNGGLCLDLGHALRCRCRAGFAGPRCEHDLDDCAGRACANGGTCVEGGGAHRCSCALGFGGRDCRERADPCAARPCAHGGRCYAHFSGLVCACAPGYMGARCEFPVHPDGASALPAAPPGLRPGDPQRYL

T4: DLL3 extracellular domain (amino acids 27-466) (human, UniProt Q9NYJ7 27-466)
T4 construct: also called DLL3 ECD; wild type DLL3 ECD
T4 sequence: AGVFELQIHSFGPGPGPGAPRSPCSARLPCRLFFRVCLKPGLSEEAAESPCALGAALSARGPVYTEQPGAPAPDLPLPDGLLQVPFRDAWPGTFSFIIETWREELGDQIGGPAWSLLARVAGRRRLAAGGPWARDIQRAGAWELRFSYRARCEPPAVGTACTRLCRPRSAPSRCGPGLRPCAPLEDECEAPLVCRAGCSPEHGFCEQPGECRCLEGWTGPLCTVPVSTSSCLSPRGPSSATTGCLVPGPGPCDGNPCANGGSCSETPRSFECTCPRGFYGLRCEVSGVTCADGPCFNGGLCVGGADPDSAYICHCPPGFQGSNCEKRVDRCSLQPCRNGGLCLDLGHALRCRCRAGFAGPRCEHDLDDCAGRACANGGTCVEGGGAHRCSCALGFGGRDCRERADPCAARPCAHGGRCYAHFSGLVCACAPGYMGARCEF


Legend:
[1] = biological target: T1, hASCL1 in 293 cells engineered to …; assay: immunohistochemistry on FFPE sections, antibody at 10 ug/ml
Description: IHC was performed essentially as follows. Planar sections of formalin fixed and paraffin embedded (FFPE) tissues were cut and mounted on glass microscope slides. After xylene de-paraffinization 5 μm sections were pre-treated with Antigen Retrieval Solution (Dako) for 20 mins. at 99° C., cooled to 75° C. and then treated with 0.3% hydrogen peroxide in PBS followed by Avidin/Biotin Blocking Solution (Vector Laboratories). FFPE slides were then blocked with 10% horse serum in 3% BSA in PBS buffer and incubated with a primary anti-ASCL1 antibody (clone SC72.2), diluted to 10 μg/ml in 3% BSA/PBS, for 30 mins. at room temperature. The FFPE slides were incubated with biotin-conjugated horse anti-mouse antibody (Vector Laboratories), diluted to 2.5 μg/ml in 3% BSA/PBS, for 30 mins. at room temperature followed by incubation in streptavidin-HRP (ABC Elite Kit; Vector Laboratories). Chromogenic detection was developed with 3,3′-diaminobenzidine (Thermo Scientific) for 5 mins. at room temperature and tissues were counterstained with Meyer's hematoxylin (IHC World), washed with alcohol and immersed in xylene. Sections were then viewed by brightfield microscopy and ASCL1 expression was noted.
PDX tumors were stained by IHC (FIG. 12) and ASCL1 protein expression by IHC correlates with the expected ASCL1 mRNA expression based on microarray results.

human ASCL1 = biological target: T2, human ASCL1; assay: screen on immobilized hASCL1 or h293-hASCL1 cells
human DLL3 [2] = biological target: T3, human DLL3; assay: screen on immobilized hDLL3 or h293-hDLL3 cells
Outline: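 After 10 days in culture, supernatants of single-cell hybridomas from human DLL3-immunized mice were tested on cells and by solid-phase ELISA. A flow-cytometry signal above the control level counted as binding. The ELISA used DLL3-His coated at 0.5 μg/ml, HRP anti-mouse IgG and TMB, with reading at OD 450.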

[3] = biological target: T4, DLL3 extracellular domain (amino acids …); assay: fine epitope mapping (phage display peptides or yeast display of DLL3 ECD mutants)
Description: Fine epitope mapping was further performed on selected antibodies using one of two methods. The first method employed the Ph.D.-12 phage display peptide library kit (New England Biolabs) which was used in accordance with the manufacturer's instructions. The antibody for epitope mapping was coated overnight at 50 μg/mL in 3 mL 0.1 M sodium bicarbonate solution, pH 8, onto a Nunc MaxiSorp tube (Nunc). The tube was blocked with 3% BSA solution in bicarbonate solution. Then, […] input phage in PBS+0.1% Tween-20 was allowed to bind, followed by ten consecutive washes with 0.1% Tween-20 to wash away non-binding phage. Remaining phage were eluted with 1 mL 0.2 M glycine for 10 minutes at room temperature with gentle agitation, followed by neutralization with 150 μL 1M Tris-HCl pH 9. Eluted phage were amplified and panned again with 10¹¹ input phage, using 0.5% Tween-20 during the wash steps to increase selection stringency. DNA from 24 plaques of the eluted phage from the second round was isolated using the Qiaprep M13 Spin kit (Qiagen) and sequenced. Binding of clonal phage was confirmed using an ELISA assay, where the mapped antibody or a control antibody was coated onto an ELISA plate, blocked, and exposed to each phage clone. Phage binding was detected using horseradish peroxidase conjugated anti-M13 antibody (GE Healthcare), and the 1-Step Turbo TMB ELISA solution (Pierce). Phage peptide sequences from specifically binding phage were aligned using Vector NTI (Life Technologies) against the antigen ECD peptide sequence to determine the epitope of binding.
Alternatively, a yeast display method (Chao et al., 2007, PMID: 17406305) was used to map the epitopes of selected antibodies. Libraries of DLL3 ECD mutants were generated with error prone PCR using nucleotide analogues 8-oxo-2′deoxyguanosine-5′-triphosphate and 2′-deoxy-p-nucleoside-5′triphosphate (TriLink Bio) for a target mutagenesis rate of one amino acid mutation per clone. These were transformed into a yeast display format. […]

human DLL3 [4] = biological target: T3, human DLL3; assay: surface plasmon resonance

Binder | binding result (human DLL3 [2]) | binding result [3] | binding result (human DLL3 [4]) | also measured
SC72.2 (antibody, V domains shown, murine mAb; also called anti-ASCL1 antibody clone SC72.2) VH: QVQLQQSGAELVRPGASVTLSCKASGYTFIDYEMHWVKQTPVHGLEWIGAIDPETGGTTYNQNFKGKATLTADKSSNTAYMELRSLTSGDSAVYYCSRGGLDYWGQGTTLTVSS VL: not shown |  |  |  | binding result [1]: binds; binding result (human ASCL1): binds
SC16.56 (antibody, V domains shown, murine mAb) VH: QIQLVQSGPELKKPGETVKISCKASGYTFTNYGMNWVKQAPGKGLKWMAWINTYTGEPTYADDFKGRFAFSLETSASTASLQIINLKNEDTATYFCARIGDSSPSDYWGQGTTLTVSS VL: SIVMTQTPKFLLVSAGDRVTITCKASQSVSNDVVWYQQKPGQSPKLLIYYASNRYTGVPDRFAGSGYGTDFSFTISTVQAEDLAVYFCQQDYTSPWTFGGGTKLEIR | binds | binds |  | 
hSC16.34 (antibody, human IgG1, kappa, V domains shown, humanized IgG1/kappa; also called humanized SC16.34) VH: QVQLVQSGAEVKKPGASVKVSCKASGYTFTNYGMNWVRQAPGQRLEWMGWINTYTGDPTYADDFKGRVTITRDTSASTAYMELSSLRSEDTAVYYCARIGGNSPSDYWGQGTTVTVSS VL: DIQMTQSPSSLSASVGDRVTITCKASQSVSNDVAWYQQKPGKVPKLLIYYASNRYSGVPSRFSGSGSGTDFTLTISSLQPEDVATYFCQQDYSSPWTFGGGTKVEIKR |  |  | binds | 
hSC16.56 (antibody, human IgG1, kappa, V domains shown, humanized IgG1/kappa; also called humanized SC16.56) VH: QVQLVQSGAEVKKPGASVKVSCKASGYTFTNYGMNWVRQAPGQGLEWMGWINTYTGEPTYADDFKGRVTMTTDTSTSTAYMELRSLRSDDTAVYYCARIGDSSPSDYWGQGTLVTVSS VL: EIVMTQSPATLSVSPGERATLSCKASQSVSNDVVWYQQKPGQAPRLLIYYASNRYTGIPARFSGSGSGTEFTLTISSLQSEDFAVYYCQQDYTSPWTFGQGTKLEIKR |  |  | binds | 
hSC16.25 (antibody, human IgG1, kappa, V domains shown, humanized IgG1/kappa; also called humanized SC16.25) VH: QITLKESGPTLVKPTQTLTLTCTFSGFSLSTSGMGVGWIRQPPGKALEWLTDIWWDDNKYYNPSLKSRLTITKDTSKNQVVLTMTNMDPVDTATYYCARRVNYYYDPYYAMDYWGQGTLVTVSS VL: EIVLTQSPDFQSVTPKEKVTITCSASSSVSYMHWYQQKPDQSPKLLIKDSSKLASGVPSRFSGSGSGTDFTLTINSLEAEDAATYYCQQWSSNPLTFGQGTKLEIKR |  |  | binds | 

More lines, main results first:

binding result (human DLL3 [2]) | binding result [3] | binding result (human DLL3 [4]) | Binder | also measured
binds | binds |  | SC16.34 (antibody, V domains shown, murine mAb) VH: QIQLVQSGPELKRPGETVKISCKASGYTFTNYGMNWVKQAPGKGLKWMGWINTYTGDPTYADDFKGRFAFSLETSASTAYLQINNLKNEDTATYFCARIGGNSPSDYWGQGTSLTVSS VL: SIVMTQTPKFLLVSAGDRVTITCKASQSVSNDVAWYQQKPGQSPKLLIYYASNRYSGVPDRFTGSGYGTDFTFTISTVQAEDLAVYFCQQDYSSPWTFGGGTKLEIK | 
 |  | binds | chimeric SC16.15 (antibody, human IgG1, kappa, V domains shown, murine V regions on human IgG1/kappa; also called chimeric parent antibody of hSC16.15) VH: QVQLQQSGAELAKPGASVKMSCKASGYTFTRYWIHWIKQRPGQGLEWIGYINPTTVYTEFNQNFKDKATLTADKSSTTASMQLSSLTSEDSAVYYCARGGSNFFDYWGQGTTLTVSS VL: DIQMTQSPASLAASVGETVAITCRASENIYYNLAWYQQKQGKSPQLLIYTANSLEDGVPSRFSGSGSGTQYSLKINSMQPEDSATYFCKQAYDVPPTFGGGTKLEIKR | 
binds | binds |  | SC16.23 (antibody, V domains shown, murine mAb) VH: QVTLKESGPGILQPSQTLSLTCSFSGFSLSTSNTGIGWIRQPSGTGLEWLAHIWWNDDKYYNPSLKSRLTISKETSNNQVFLKITNVDTADTASYFCVQIGRDYSNYAWYFDVWGAGTTVTVSS VL: QIVLTQSPAIMSASPGEKVTLTCSASSSVSSRYLYWYQQKPGSSPKLWIYSTSNLASGVPARFSGSGSGTSYSLIISSMEAEDAASYFCHQWSNYPLTFGAGTKLELK | 
